Numbering of substitutions follows the chain as printed.
B1: tOX40.39 (S-CL-LN-1) (antibody, V domains shown)
VH: EVQLVESGGGLVQPGGSLRLSCAASGFTFSNYAMTWVRQAPGKGLEWVSTISGSGGSTYYADSVKGRFTISRDNSKNTLYLQMNSLRAEDTAVYYCAKADCGDNCYSFFDYWGQGTLVTVSS
VL: DIQMTQSPSSLSASVGDRVTITCRASQGISNWLAWYQQKPEKAPKSLIYAASSLQSGVPSRFSGSGSGTDFTLTISSLQPEDFATYYCQQYNSYPPTFGRGTKVEIK
B2: tOX40.21 (S-CL-LN-2) (antibody, V domains shown)
VH: QVQLVESGGGVVQPGRSLRLSCAASGFTFSNYGMHWVRQAPGKGLEWVAVIWYDGSNKYYADSVKGRFTISRDNSKNTLYLQMNSLRAEDTAVYYCARNGDSYFDYWGQGTLVTVSS
VL: not shown
B3: tOX40.19 (S-CL-LN-4) (antibody, V domains shown)
VH: QVQLVESGGGVVQPGRSLRLSCAASGFTFSTYGMHWVRQAPGKGLEWVAVIWYDGSNKYYADSVKGRFTISRDNSKNTLYLQMNSLRAEDTAVYYCARTHYDILTGPNWFDPWGQGTLVTVSS
VL: DIQMTQSPSSLSASVGDRVTITCRASQDIRNDLGWYQQKPGKAPKRLIYAASSLQSGVPSRFSGSGSGTEFTLTISSLQPEDFATYYCLQHNSYPFTFGPGTKVDIK
B4: tOX40.22 (S-CL-LN-5) (antibody, V domains shown)
VH: QVQLVESGGGVVQPGRSLRLSCAASGFTFSNYGMHWVRQAPGKGLEWVAVIWLDGSNKYYADSVKGRFTISRDNSKNTLYLQMNSLRAEDTAVYYCARAAAGSLYYGMDVWGQGTTVTVSS
VL: B1 VL with S30N, N31T, N92Y, P96W, R100Q, K107R
B5: tOX40.40 (S-CL-LN-7) (antibody, V domains shown)
VH: QVQLVESGGDVVQPGMSLRLSCAASGFTFSDYGMHWVRQAPGKGLEWVAVIWYDGSNKYYEDSVKGRFTISRDNSKNTLYLQMNSLRAEDTAVYYCTRAGFGESGYGMDVWGQGTTVTVSS
VL: DIQMTQSPSSLSASVGDRVTITCRASQGISNYLAWYQQKPGKVPKLLIYAASTLQSGVPSRFSGSGSGTDFTLTISSLQPEDVATYYCQKYHSAPWTFGQGTKVEIK
B6: tOX40.23 (S-CL-LN-8) (antibody, V domains shown)
VH: B5 VH with D10G, M16R, D31N, N57K, E61A, T97A
VL: B5 VL with I21F, S30N, H92Y, I106V
B7: tOX40.41 (S-CL-LN-9) (antibody, V domains shown)
VH: QVQLQESGPGLVKPSETLSLTCTVSGGSISSYYWSWIRQPPGKGLEWIGYIYYSGSTNYNPSLKSRVTISVDTSKNQFSLKLSSVTAADTAVYYCARYYDILTVWDWFDPWGQGTLVTVSS
VL: B1 VL with N31S, E41G, P96I, R100Q, K103R, V104L
B8: tOX40.31 (S-CL-LN-11) (antibody, V domains shown)
VH: QVQLQESGPGLVKPSETLSLTCTVSGDSISFYYWSWIRQPPGKGLEWIGCIYYSGSTNYNPSLKSRVTISVDTSKNQFSLKLNSVTAADTAVYYCARRLWFGVFDYWGQGTLVPVSS
VL: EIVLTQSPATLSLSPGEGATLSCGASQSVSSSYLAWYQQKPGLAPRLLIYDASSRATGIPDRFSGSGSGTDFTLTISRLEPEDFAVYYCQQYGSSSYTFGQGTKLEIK
B9: tOX40.4 (S-S-Sp-1/S-CL-Sp-2) (antibody, V domains shown)
VH: QVQLVQSGAEVKKPGASVKVSCKVSGYTLTELSMHWVRQAPGKGLEWMGGFDPKDGETIYAQKFQGRVTMTEDTSTDTAYMELSSLRSEDTAVYYCSTGYCSTTSCGGFDPWGQGTLVTVSS
VL: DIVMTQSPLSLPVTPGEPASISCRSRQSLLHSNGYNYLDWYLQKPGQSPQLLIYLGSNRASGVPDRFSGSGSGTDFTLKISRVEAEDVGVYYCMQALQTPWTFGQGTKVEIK
B10: tOX40.15 (S-S-Sp-6) (antibody, V domains shown)
VH: QVQLVESGGGVVQPGRSLRLSCAASGFTFSSYGMHWVRQAPGKGLEWVAIIWYDGSNKYYADSVKGRFTISRDNSKNTLYLQMNSLRAEDTAVYFCAREGDYYGSGSYYPLDYYYYGMDVWGQGTTVTVSS
VL: DIQLTQSPSFLSASVGDRVTITCRASQGISSYLAWYQQKPGKAPKLLIYAASTLQSGVPSRFSGSGSGTEFTLTISSLQPEDFATYYCQQLNSFPRTFGQGTKVEIK
B11: tOX40.35 (S-S-Sp-3) (antibody, V domains shown)
VH: QVQLVQSGAEVKKPGASVKVSCKASGYTFTSYGITWVRQAPGQGLEWVGWISAYNGNTNYAQKLQGRVTMTTDTSTSTAYMELRSLRSDDTAVYYCARDFAGGSYYFDYWGQGTLVTVSS
VL: not shown
B12: tOX40.37 (S-S-Sp-10/S-CL-Sp-1) (antibody, V domains shown)
VH: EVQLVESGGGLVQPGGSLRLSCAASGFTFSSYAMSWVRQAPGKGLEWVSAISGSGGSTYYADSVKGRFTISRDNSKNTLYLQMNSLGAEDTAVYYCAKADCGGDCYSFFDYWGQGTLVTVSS
VL: B1 VL with N31S, R100Q
B13: tOX40.24 (antibody, V domains shown)
VH: QVQLVESGGGVVQPGRSLRLSCAASGFTFRSYGMHWVRQAPGKGLEWLAIIWYDGSNKYYADSVKGRLTISRDNSKNTLYLQMNSLRAEDTAVYYCARDTQVAEAGFPHHHYYGMDVWGQGTTVTVSS
VL: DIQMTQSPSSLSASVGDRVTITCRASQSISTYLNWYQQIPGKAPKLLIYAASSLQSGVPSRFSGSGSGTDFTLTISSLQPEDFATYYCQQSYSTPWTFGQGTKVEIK
notes: human IgHG1 constant domains; kappa; source: ExpiCHO, transiently transfected; quantified in the supernatants
B14: tOX40.63 (antibody, V domains shown)
VH: QVQLVQSGAEVKKPGASVKVSCKVSGYTLTELSMHWVRQAPGKGLEWMGGFDPEDGETIYAQKFQGRVTMTEDTSTDTAYMELSSLRSEDTAVYYCAANWGSDYYYGMDVWGQGTTVTVSS
VL: B10 VL with D1A, F10S, Y32A, A50D, T53S, Q55E, E70D, L91F, S93N, F94Y
notes: as for B13

What follows are binders tested against T1, recombinant His-tagged human OX40 extracellular domain (Homo sapiens, UniProt P43489) (assay: not given). Conditions: not given.
T1 sequence (P43489 29-214): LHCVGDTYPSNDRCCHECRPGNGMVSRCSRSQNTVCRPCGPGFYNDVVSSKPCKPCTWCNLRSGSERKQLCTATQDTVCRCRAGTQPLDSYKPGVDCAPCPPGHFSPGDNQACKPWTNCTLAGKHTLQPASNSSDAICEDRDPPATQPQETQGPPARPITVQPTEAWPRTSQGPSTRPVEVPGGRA
Work on B1 yielded a Kd of 90 nM.
For B2, the Kd was 7 nM.
B3 gave a Kd of 7.7 nM.
In the case of B4, the Kd is reported as 7.3 nM.
Binder B5 has a Kd of 151 nM.
For B6, the Kd was 5.2 nM.
B7 was tested, and the Kd was 58.4 nM.
For B8, the Kd was 22.4 nM.
Binder B9 has a Kd of 9 nM.
Work on B10 yielded a Kd of 6 nM.
Work on B11 yielded a Kd of 2.7 nM.
B12 showed a Kd of 12.5 nM.

Each binder was assayed against T2, human OX40 expressed on Flp-In CHO cells (Homo sapiens, UniProt P43489) (assay: cell-based or functional assay). Conditions: not given.
T2 sequence (P43489 29-277): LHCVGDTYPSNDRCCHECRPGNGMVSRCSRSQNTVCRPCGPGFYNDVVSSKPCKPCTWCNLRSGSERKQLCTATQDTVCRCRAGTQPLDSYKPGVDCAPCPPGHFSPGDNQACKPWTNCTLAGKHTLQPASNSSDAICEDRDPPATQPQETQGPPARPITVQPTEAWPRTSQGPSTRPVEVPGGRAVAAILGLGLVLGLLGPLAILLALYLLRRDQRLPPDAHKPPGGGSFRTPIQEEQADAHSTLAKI
For B13, the “Promega In Vitro Assay EC50 (Agonist): luminescence of OX40-expressing Jurkat cells with FcγRIIB/CHO-K1 cells” value was 0.024 µg/mL.

Each binder was assayed against T1, recombinant His-tagged human OX40 … (assay: BLI; Octet Red96; 5 μg/mL antibody loaded onto Protein A biosensor, dipped into His-tagged OX40 extracellular domain at 200, 100 and 50 nM or 1600, 800 and 400 nM; 1:1 binding model, global fit). Conditions: one partner purified.
B13 showed a Kd of 22.9 nM.

These binders were tested against T2, human OX40 expressed on Flp-In CHO cells (assay: flow cytometry on cells; one million CHO cells (1:1 mix of OX40-expressing and PD-1-expressing negative control cells) stained with 1 μg mAb in 100 μL MACS Buffer (DPBS, 0.5% BSA, 2 mM EDTA), 30 min, 4 °C; detected with anti-human IgG Fc-PE). Conditions: partners not purified.
B14: no binding (tested: 1 μg of anti-OX40 mAb in 100 μL).
